Results on 14 molecules are retold here after patent US20240018502A1.

The experiment addresses plasma purified human complement protein C3 (human) (UniProt P01024). The experiment in a line: cell-based or functional assay.

plasma purified human complement protein C3 (human), sequence (P01024 23-667, chain 1 of 2): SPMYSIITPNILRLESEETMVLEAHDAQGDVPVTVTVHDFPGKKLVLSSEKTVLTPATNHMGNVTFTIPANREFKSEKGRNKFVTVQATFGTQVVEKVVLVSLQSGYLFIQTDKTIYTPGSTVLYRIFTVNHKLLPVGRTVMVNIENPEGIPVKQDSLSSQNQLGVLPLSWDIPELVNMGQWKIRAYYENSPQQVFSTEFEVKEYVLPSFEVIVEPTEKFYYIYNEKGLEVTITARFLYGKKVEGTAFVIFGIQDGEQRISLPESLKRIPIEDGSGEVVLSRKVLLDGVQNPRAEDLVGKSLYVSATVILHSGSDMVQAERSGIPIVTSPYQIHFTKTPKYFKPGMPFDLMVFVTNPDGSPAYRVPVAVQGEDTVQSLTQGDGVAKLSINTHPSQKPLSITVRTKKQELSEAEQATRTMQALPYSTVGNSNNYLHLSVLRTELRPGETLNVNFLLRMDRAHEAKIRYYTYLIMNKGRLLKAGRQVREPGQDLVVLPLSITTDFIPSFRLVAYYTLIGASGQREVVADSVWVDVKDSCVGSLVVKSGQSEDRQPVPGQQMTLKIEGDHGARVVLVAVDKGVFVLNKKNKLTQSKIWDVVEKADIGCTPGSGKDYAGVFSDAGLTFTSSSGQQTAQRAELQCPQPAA
plasma purified human complement protein C3 (human), sequence (P01024 672-1663, chain 2 of 2): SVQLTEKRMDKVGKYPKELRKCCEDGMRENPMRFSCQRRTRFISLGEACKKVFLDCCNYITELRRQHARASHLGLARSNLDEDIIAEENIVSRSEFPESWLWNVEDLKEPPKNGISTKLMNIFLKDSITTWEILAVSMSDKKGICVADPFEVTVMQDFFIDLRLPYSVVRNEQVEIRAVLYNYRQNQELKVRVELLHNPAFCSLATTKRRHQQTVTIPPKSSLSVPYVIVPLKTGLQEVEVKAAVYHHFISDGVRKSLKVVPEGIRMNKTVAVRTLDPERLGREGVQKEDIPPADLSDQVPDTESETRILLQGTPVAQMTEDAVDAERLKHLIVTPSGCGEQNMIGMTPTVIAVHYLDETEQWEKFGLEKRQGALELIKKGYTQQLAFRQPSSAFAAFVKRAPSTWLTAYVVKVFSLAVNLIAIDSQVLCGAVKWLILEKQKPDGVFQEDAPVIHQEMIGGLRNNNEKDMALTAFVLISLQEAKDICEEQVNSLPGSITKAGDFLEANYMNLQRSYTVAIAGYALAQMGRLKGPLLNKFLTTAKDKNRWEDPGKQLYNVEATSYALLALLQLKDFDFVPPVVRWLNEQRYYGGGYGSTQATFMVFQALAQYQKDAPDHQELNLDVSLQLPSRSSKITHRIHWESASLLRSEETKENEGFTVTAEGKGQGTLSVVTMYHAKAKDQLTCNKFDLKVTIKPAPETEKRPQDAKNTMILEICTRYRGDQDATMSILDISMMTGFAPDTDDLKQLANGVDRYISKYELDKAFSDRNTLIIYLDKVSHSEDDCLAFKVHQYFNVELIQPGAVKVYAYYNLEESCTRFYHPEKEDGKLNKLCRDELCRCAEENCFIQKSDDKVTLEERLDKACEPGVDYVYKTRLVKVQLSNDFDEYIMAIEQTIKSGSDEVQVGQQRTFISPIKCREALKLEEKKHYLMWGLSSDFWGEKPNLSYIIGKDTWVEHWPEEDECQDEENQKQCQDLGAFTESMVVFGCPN

B1: MTSP-1 Q38H/I41S/D60bT/F60eS/Y60gW/D96K/F97G/ins97aV/T98P/F99L/C122S/G151H/Q175L (enzyme)
chain: VVGGTDADEGEWPWQVSLHALGHGHSCGASLISPNWLVSAAHCYIDTRGSRWSDPTQWTAFLGLHDQSQRSAPGVQERRLKRIISHPFFNKGVPLDYDIALLELEKPAEYSSMVRPISLPDASHVFPAGKAIWVTGWGHTQYGGTHALILQKGEIRVINQTTCENLLPQLITPRMMCVGFLSGGVDSCQGDSGGPLSSVEADGRIFQAGVVSWGDGCAQRNKPGVYTRLPLFRDWIKENTGV
Take B1: the EC50 of hC3 cleavage came to 1.45 nM.

B2: MTSP-1 protease domain I41D/F97R/F99L/C122S/Q175R/Q192V/D217L (enzyme)
chain: VVGGTDADEGEWPWQVSLHALGQGHDCGASLISPNWLVSAAHCYIDDRGFRYSDPTQWTAFLGLHDQSQRSAPGVQERRLKRIISHPFFNDRTLDYDIALLELEKPAEYSSMVRPISLPDASHVFPAGKAIWVTGWGHTQYGGTGALILQKGEIRVINQTTCENLLPQRITPRMMCVGFLSGGVDSCVGDSGGPLSSVEADGRIFQAGVVSWGLGCAQRNKPGVYTRLPLFRDWIKENTGV
In turn, B2 gave an EC50 hC3 cleavage of 50.6 nM.

B3: MTSP-1 protease domain I41D/F97R/F99L/C122S/G151Q/Q175R/Q192V (enzyme)
chain: VVGGTDADEGEWPWQVSLHALGQGHDCGASLISPNWLVSAAHCYIDDRGFRYSDPTQWTAFLGLHDQSQRSAPGVQERRLKRIISHPFFNDRTLDYDIALLELEKPAEYSSMVRPISLPDASHVFPAGKAIWVTGWGHTQYGGTQALILQKGEIRVINQTTCENLLPQRITPRMMCVGFLSGGVDSCVGDSGGPLSSVEADGRIFQAGVVSWGDGCAQRNKPGVYTRLPLFRDWIKENTGV
B3 yielded an EC50 hC3 cleavage of 79.4 nM.

B4: MTSP-1 protease domain I41E/F97R/F99L/C122S/G151Q/Q175G/Q192T (enzyme)
chain: VVGGTDADEGEWPWQVSLHALGQGHECGASLISPNWLVSAAHCYIDDRGFRYSDPTQWTAFLGLHDQSQRSAPGVQERRLKRIISHPFFNDRTLDYDIALLELEKPAEYSSMVRPISLPDASHVFPAGKAIWVTGWGHTQYGGTQALILQKGEIRVINQTTCENLLPQGITPRMMCVGFLSGGVDSCTGDSGGPLSSVEADGRIFQAGVVSWGDGCAQRNKPGVYTRLPLFRDWIKENTGV
Regarding B4, the EC50 hC3 cleavage came out at 41.1 nM.

B5: MTSP-1 protease domain I41D/F97T/F99L/C122S/Q175S/Q192T/D217A (enzyme)
chain: VVGGTDADEGEWPWQVSLHALGQGHDCGASLISPNWLVSAAHCYIDDRGFRYSDPTQWTAFLGLHDQSQRSAPGVQERRLKRIISHPFFNDTTLDYDIALLELEKPAEYSSMVRPISLPDASHVFPAGKAIWVTGWGHTQYGGTGALILQKGEIRVINQTTCENLLPQSITPRMMCVGFLSGGVDSCTGDSGGPLSSVEADGRIFQAGVVSWGAGCAQRNKPGVYTRLPLFRDWIKENTGV
The molecule B5 gave an EC50 hC3 cleavage of 52.1 nM.

B6: MTSP-1 protease domain I41D/F97R/F99L/C122S/G151Q/Q192V/D217L (enzyme)
chain: VVGGTDADEGEWPWQVSLHALGQGHDCGASLISPNWLVSAAHCYIDDRGFRYSDPTQWTAFLGLHDQSQRSAPGVQERRLKRIISHPFFNDRTLDYDIALLELEKPAEYSSMVRPISLPDASHVFPAGKAIWVTGWGHTQYGGTQALILQKGEIRVINQTTCENLLPQQITPRMMCVGFLSGGVDSCVGDSGGPLSSVEADGRIFQAGVVSWGLGCAQRNKPGVYTRLPLFRDWIKENTGV
Molecule B6 showed an EC50 hC3 cleavage of 42.3 nM.

B7: MTSP-1 protease domain I41D/F97T/F99L/C122S/G151N/Q175S/D217A (enzyme)
chain: VVGGTDADEGEWPWQVSLHALGQGHDCGASLISPNWLVSAAHCYIDDRGFRYSDPTQWTAFLGLHDQSQRSAPGVQERRLKRIISHPFFNDTTLDYDIALLELEKPAEYSSMVRPISLPDASHVFPAGKAIWVTGWGHTQYGGTNALILQKGEIRVINQTTCENLLPQSITPRMMCVGFLSGGVDSCQGDSGGPLSSVEADGRIFQAGVVSWGAGCAQRNKPGVYTRLPLFRDWIKENTGV
In turn, B7 gave an EC50 hC3 cleavage of 25.5 nM.

B8: MTSP-1 protease domain I41S/F97Q/F99L/C122S/Q175W/Q192V/D217R (enzyme)
chain: VVGGTDADEGEWPWQVSLHALGQGHSCGASLISPNWLVSAAHCYIDDRGFRYSDPTQWTAFLGLHDQSQRSAPGVQERRLKRIISHPFFNDQTLDYDIALLELEKPAEYSSMVRPISLPDASHVFPAGKAIWVTGWGHTQYGGTGALILQKGEIRVINQTTCENLLPQWITPRMMCVGFLSGGVDSCVGDSGGPLSSVEADGRIFQAGVVSWGRGCAQRNKPGVYTRLPLFRDWIKENTGV
Molecule B8 gave an EC50 hC3 cleavage of 50.6 nM.

B9: MTSP-1 protease domain I41D/F97R/F99L/C122S/G151Q/Q175R/D217L (enzyme)
chain: VVGGTDADEGEWPWQVSLHALGQGHDCGASLISPNWLVSAAHCYIDDRGFRYSDPTQWTAFLGLHDQSQRSAPGVQERRLKRIISHPFFNDRTLDYDIALLELEKPAEYSSMVRPISLPDASHVFPAGKAIWVTGWGHTQYGGTQALILQKGEIRVINQTTCENLLPQRITPRMMCVGFLSGGVDSCQGDSGGPLSSVEADGRIFQAGVVSWGLGCAQRNKPGVYTRLPLFRDWIKENTGV
B9 gave an EC50 hC3 cleavage of 19.4 nM.

B10: MTSP-1 protease domain I41D/F97T/F99L/C122S/G151N/Q175S/Q192T (enzyme)
chain: VVGGTDADEGEWPWQVSLHALGQGHDCGASLISPNWLVSAAHCYIDDRGFRYSDPTQWTAFLGLHDQSQRSAPGVQERRLKRIISHPFFNDTTLDYDIALLELEKPAEYSSMVRPISLPDASHVFPAGKAIWVTGWGHTQYGGTNALILQKGEIRVINQTTCENLLPQSITPRMMCVGFLSGGVDSCTGDSGGPLSSVEADGRIFQAGVVSWGDGCAQRNKPGVYTRLPLFRDWIKENTGV
Turning to B10, the EC50 hC3 cleavage came out at 56.7 nM.

B11: MTSP-1 protease domain I41D/F97T/F99L/C122S/G151N/Q192T/D217A (enzyme)
chain: VVGGTDADEGEWPWQVSLHALGQGHDCGASLISPNWLVSAAHCYIDDRGFRYSDPTQWTAFLGLHDQSQRSAPGVQERRLKRIISHPFFNDTTLDYDIALLELEKPAEYSSMVRPISLPDASHVFPAGKAIWVTGWGHTQYGGTNALILQKGEIRVINQTTCENLLPQQITPRMMCVGFLSGGVDSCTGDSGGPLSSVEADGRIFQAGVVSWGAGCAQRNKPGVYTRLPLFRDWIKENTGV
B11 showed an EC50 hC3 cleavage of 70.4 nM.

B12: MTSP-1 protease domain I41D/F99L/C122S/G151N/Q175S/Q192T/D217A (enzyme)
chain: VVGGTDADEGEWPWQVSLHALGQGHDCGASLISPNWLVSAAHCYIDDRGFRYSDPTQWTAFLGLHDQSQRSAPGVQERRLKRIISHPFFNDFTLDYDIALLELEKPAEYSSMVRPISLPDASHVFPAGKAIWVTGWGHTQYGGTNALILQKGEIRVINQTTCENLLPQSITPRMMCVGFLSGGVDSCTGDSGGPLSSVEADGRIFQAGVVSWGAGCAQRNKPGVYTRLPLFRDWIKENTGV
B12 displayed an EC50 hC3 cleavage of 30.5 nM.

B13: MTSP-1 protease domain F97T/F99L/C122S/G151N/Q175S/Q192T/D217A (enzyme)
chain: VVGGTDADEGEWPWQVSLHALGQGHICGASLISPNWLVSAAHCYIDDRGFRYSDPTQWTAFLGLHDQSQRSAPGVQERRLKRIISHPFFNDTTLDYDIALLELEKPAEYSSMVRPISLPDASHVFPAGKAIWVTGWGHTQYGGTNALILQKGEIRVINQTTCENLLPQSITPRMMCVGFLSGGVDSCTGDSGGPLSSVEADGRIFQAGVVSWGAGCAQRNKPGVYTRLPLFRDWIKENTGV
B13: the EC50 hC3 cleavage worked out at 172 nM.

B14: MTSP-1 I41D/C122S/G151N/Q192T (enzyme)
chain: VVGGTDADEGEWPWQVSLHALGQGHDCGASLISPNWLVSAAHCYIDDRGFRYSDPTQWTAFLGLHDQSQRSAPGVQERRLKRIISHPFFNDFTFDYDIALLELEKPAEYSSMVRPISLPDASHVFPAGKAIWVTGWGHTQYGGTNALILQKGEIRVINQTTCENLLPQQITPRMMCVGFLSGGVDSCTGDSGGPLSSVEADGRIFQAGVVSWGDGCAQRNKPGVYTRLPLFRDWIKENTGV
Molecule B14 came in with an EC50 of hC3 cleavage of 85.2 nM.
